Results on 1 molecule are retold here after patent US10428140B2, “Anti-EphA4 antibody” (EISAI R&D MANAGEMENT CO., LTD., priority 2015, dated 2019).

For this assay, the system named is EphA4 autophosphorylation induced by mouse Ephrin A1. The experiment in a line: In vivo competition assay using mouse newborns (EphA4 autophosphorylation in cerebral hemisphere). Conditions: 8-day-old mouse, 300 mg/kg subcutaneous. How it is done:
The in vivo competition assay using mouse newborns was conducted according to the following steps. PBS (Wako Pure Chemical Industries), antibody A, or a control antibody (mouse anti-dinitrophenol antibody) produced with a conventional procedure by immunizing […] with dinitrophenol was subcutaneously administered at a dose of 300 mg/kg (30 mL/kg) to each 8-day-old mouse (Charles River Laboratories Japan). After 24 hours, the scalp was incised under 4% isoflurane (Intervet) anesthesia, and mouse Ephrin A1-Fc chimera (300 pmol/head, R&D Systems) or PBS (Wako Pure Chemical Industries) was administered into the lateral ventricle. 1 hour thereafter, the mouse was euthanized by decapitation, followed by the extirpation of the cerebral hemisphere. […] 3×SDS sample buffer was added to a portion of the homogenate, which was then boiled for 10 minutes, followed by protein quantification. […] The remaining homogenate was subjected to protein quantification and then dispensed in an amount corresponding to 3 mg of protein, and 1% Triton X-100 (Wako Pure Chemical Industries) and 0.1% SDS (Nacalai Tesque) were added thereto. […] Western blotting using an anti-EphA4 monoclonal antibody (Abnova) was further performed, and band intensity was quantified to calculate a value of phosphorylated EphA4/total EphA4. […]

B1: antibody A: mouse anti-EphA4 monoclonal antibody, IgG1/κ; heavy chain variable region SEQ ID NO: 11, light chain variable region SEQ ID NO: 13 (antibody, listed as Mus musculus, V domains shown)
VH: QIQLVQSGPELKKPGETVKISCKASGYTFTDYSMHWVKQAPGKGLKWMGWINTETGEPTYADDFKGRFAFSLETSASTAYLQINNLKNEDTATYFCARIPLYYYGSRYWYFDVWGAGTTVTVSS
VL: DIQMTQSPASLSVSVGETVTITCRASENIYRNLAWYQQKQGKSPQLLVYAATNLADGVPSRFSGSGSGTQYSLKINSLQSEDFGSYYCQHFWGTPWTFGGGTKLEIK
Regarding B1, the “suppression of mouse EphrinA1-induced EphA4 autophosphorylation” value worked out at 66%.
